Experimental data from publication PMC5529588.

Experiments:
[1] = molecular target: actin filaments (rabbit muscle actin, polymerized) (rabbit) (UniProt P68135); experiment: co-sedimentation; high-speed cosedimentation; 3 uM actin (AFs) with 0.25-8 uM FH1FH2; bound against free protein fitted with a hyperbolic function; three independent experiments; methods in the supplement
[2] = molecular target: microtubules (porcine brain tubulin, taxol-stabilized) (porcine) (UniProt P02550); experiment: co-sedimentation; high-speed cosedimentation; 1 uM tubulin (MTs) with 1-12 uM FH1FH2; bound against free protein fitted with a hyperbolic function; methods in the supplement

Chain of OsFH15 FH2 (truncated recombinant protein containing the FH2 domain of OsFH15) (Q69MT2 340-768): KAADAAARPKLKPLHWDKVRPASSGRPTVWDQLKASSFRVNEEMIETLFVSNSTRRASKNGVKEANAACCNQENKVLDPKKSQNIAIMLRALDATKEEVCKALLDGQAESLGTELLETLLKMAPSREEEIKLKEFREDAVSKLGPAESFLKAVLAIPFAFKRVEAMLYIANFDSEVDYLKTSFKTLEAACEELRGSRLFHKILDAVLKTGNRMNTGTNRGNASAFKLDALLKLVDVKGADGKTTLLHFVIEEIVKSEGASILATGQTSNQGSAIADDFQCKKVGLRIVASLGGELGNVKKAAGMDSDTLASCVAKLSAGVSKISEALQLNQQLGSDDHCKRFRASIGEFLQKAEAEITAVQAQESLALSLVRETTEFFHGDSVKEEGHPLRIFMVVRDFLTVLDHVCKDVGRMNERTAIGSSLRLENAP

OsFH15 FH1FH2 (truncated recombinant protein containing the FH1FH2 domain of OsFH15) (domain or fragment)
Kd [1]: 820 nM
Kd [2]: 1020 nM

OsFH15 FH2 (truncated recombinant protein containing the FH2 domain of OsFH15) (from UniProt Q69MT2 340-768) (domain or fragment)
Kd [2]: 1810 nM
